In publication PMC10988713:
Residue numbers refer to the chain shown, from its start. Numbers in names are those of the source.

B1: HsHAD (Homo sapiens) (protein)
chain: SSSSTASASAKKIIVKHVTVIGGGLMGAGIAQVAAATGHTVVLVDQTEDILAKSKKGIEESLRKVAKKKFAENLKAGDEFVEKTLSTIATSTDAASVVHSTDLVVEAIVENLKVKNELFKRLDKFAAEHTIFASNTSSLQITSIANATTRQDRFAGLHFFNPVPVMKLVEVIKTPMTSQKTFESLVDFSKALGKHPVSCKDTPGFIVNRLLVPYLMEAIRLYERGDASKEDIDTAMKLGAGYPMGPFELLDYVGLDTTKFIVDGWHEMDAENPLHQPSPSLNKLVAENKFGKKTGEGFYKYK
notes: N-terminal His6 tag in pET28a, E. coli BL21(DE3) pLysS, dimer of 35 kDa subunits
B2: RnMFE1 (Rattus norvegicus) (protein)
chain: MAEYLRLPHSLAMIRLCNPPVNAVSPTVIREVRNGLQKAGSDHTVKAIVICGANGNFCAGADIHGFSAFTPGLALGSLVDEIQRYQKPVLAAIQGVALGGGLELALGCHYRIANAKARVGLPEVTLGILPGARGTQLLPRVVGVPVALDLITSGKYLSADEALRLGILDAVVKSDPVEEAIKFAQKIIDKPIEPRRIFNKPVPSLPNMDSVFAEAIAKVRKQYPGVLAPETCVRSIQASVKHPYEVGIKEEEKLFMYLRASGQAKALQYAFFAEKSANKWSTPSGASWKTASAQPVSSVGVLGLGTMGRGIAISFARVGISVVAVESDPKQLDAAKKIITFTLEKEASRAHQNGQASAKPKLRFSSSTKELSTVDLVVEAVFEDMNLKKKVFAELSALCKPGAFLCTNTSALNVDDIASSTDRPQLVIGTHFFSPAHVMRLLEVIPSRYSSPTTIATVMSLSKKIGKIGVVVGNCYGFVGNRMLAPYYNQGFFLLEEGSKPEDVDGVLEEFGFKMGPFRVSDLAGLDVGWKIRKGQGLTGPSLPPGTPVRKRGNSRYSPLGDMLCEAGRFGQKTGKGWYQYDKPLGRIHKPDPWLSTFLSQYREVHHIEQRTISKEEILERCLYSLINEAFRILEEGMAARPEHIDVIYLHGYGWPRHKGGPMFYAASVGLPTVLEKLQKYYRQNPDIPQLEPSDYLRRLVAQGSPPLKEWQSLAGPHGSKL
B3: RnMFE1 (Rattus norvegicus; E123A) (protein)
chain: B2 chain with E123A
B4: BCDE (Rattus norvegicus) (protein)
chain: ASGQAKALQYAFFAEKSANKWSTPSGASWKTASAQPVSSVGVLGLGTMGRGIAISFARVGISVVAVESDPKQLDAAKKIITFTLEKEASRAHQNGQASAKPKLRFSSSTKELSTVDLVVEAVFEDMNLKKKVFAELSALCKPGAFLCTNTSALNVDDIASSTDRPQLVIGTHFFSPAHVMRLLEVIPSRYSSPTTIATVMSLSKKIGKIGVVVGNCYGFVGNRMLAPYYNQGFFLLEEGSKPEDVDGVLEEFGFKMGPFRVSDLAGLDVGWKIRKGQGLTGPSLPPGTPVRKRGNSRYSPLGDMLCEAGRFGQKTGKGWYQYDKPLGRIHKPDPWLSTFLSQYREVHHIEQRTISKEEILERCLYSLINEAFRILEEGMAARPEHIDVIYLHGYGWPRHKGGPMFYAASVGLPTVLEKLQKYYRQNPDIPQLEPSDYLRRLVAQGSPPLKEWQSLAGPHGSKL
notes: truncated RnMFE1 from Ala260 (ASGQ) to the C-terminus, without domain A (ECH part); N-terminal His6 tag, E. coli BL21(DE3) pLysS

Tests used:
purified protein [1] = substrate: C[C@H](O)CC(=O)SCCNC(=O)CCNC(=O)[C@H](O)C(C)(C)COP(=O)(O)OP(=O)(O)OC[C@H]1O[C@@H](n2cnc3c(N)ncnc32)[C@H](O)[C@@H]1OP(=O)(O)O; assay: purified protein; type: biochemical, Homo sapiens; details: 1 mM NAD+, pH 9.0, 50 mM Tris, 50 mM KCl, 25 °C
purified protein [2] = substrate: C[C@H](O)CC(=O)SCCNC(=O)CCNC(=O)[C@H](O)C(C)(C)COP(=O)(O)OP(=O)(O)OC[C@H]1O[C@@H](n2cnc3c(N)ncnc32)[C@H](O)[C@@H]1OP(=O)(O)O; assay: purified protein; type: biochemical, Rattus norvegicus; details: 1 mM NAD+, pH 9.0, 50 mM Tris, 50 mM KCl, 25 °C, HAD dehydrogenase reaction

| Protein | Km (purified protein [1]) [µM] | kcat (purified protein [1]) [s⁻¹] | Km (purified protein [2]) [µM] | kcat (purified protein [2]) [s⁻¹] |
| --- | --- | --- | --- | --- |
| B1 | 19 ± 0.9 | 42 ± 2 | – | – |
| B2 | – | – | 11 ± 2 | 1.9 ± 0.3 |
| B3 | – | – | 10 ± 0.6 | 2.4 ± 0.1 |
| B4 | – | – | 5.2 ± 0.9 | 1.6 ± 0.1 |
